Source: the supplement of paper PMC9942255

Tested on: Bacillus subtilis DB104 (SP-AmyQ fusion secretion)
Test: AmyQ secretion efficiency, weighted average sort bin (1 = best secretion, 10 = worst) (bin number (weighted average, 1-10)); higher = lower secretion efficiency
In short: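 The secretion score was taken as the read-frequency-weighted mean bin number, normalised to beads per bin, with low-abundance sequences excluded. Bins came from large-particle flow cytometry sorting of occupied alginate beads (~65 nL, about 0.3 cells each, with fluorescein-starch) into 10 equally populated groups by green/red fluorescence ratio after about 13 h at room temperature and nile red staining. The cells were a B. subtilis DB104 library with mature AmyQ fused to designed signal peptides, integrated at amyE, and each bin's amplicons were Illumina-sequenced.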

Sequence | AmyQ secretion efficiency
MRSYIKVLTMCFLGLILFVPTALFDNS | 7.14
MRSYIKVLTMCFLGLILFVPTALGDNS | 2.8
MRSYIKVLTMCFLGLILFVPTALKDNS | 7.49
MRSYIKVLTMCFLGLILFVPTALLDNS | 5.28
MRSYIKVLTMCFLGLILFVPTALMDNS | 6.46
MRSYIKVLTMCFLGLILFVPTALNDNS | 6.3
MRSYIKVLTMCFLGLILFVPTALPDNS | 7.02
MRSYIKVLTMCFLGLILFVPTALQDNS | 6.11
MRSYIKVLTMCFLGLILFVPTALTDNS | 5.81
MRSYIKVLTMCFLGLILFVPTALVDNS | 5.38
MRSYIKVLTMCFLGLILFVPTALYDNS | 8.55
MRSYIKVLTMCFLGLILFVPTCLADNS | 2.04
MRSYIKVLTMCFLGLILFVPTFLADNS | 5.95
MRSYIKVLTMCFLGLILFVPTGLADNS | 1.86
MRSYIKVLTMCFLGLILFVPTGVFGSSPPFAAALADNS | 3.3
MRSYIKVLTMCFLGLILFVPTHLADNS | 6.38
MRSYIKVLTMCFLGLILFVPTILADNS | 2.6
MRSYIKVLTMCFLGLILFVPTKDEPALADNS | 2.48
MRSYIKVLTMCFLGLILFVPTKLADNS | 5.85
MRSYIKVLTMCFLGLILFVPTLLADNS | 4.36
MRSYIKVLTMCFLGLILFVPTMLADNS | 3.1
MRSYIKVLTMCFLGLILFVPTNLADNS | 3.6

Sequence | AmyQ secretion efficiency
MRSYIKVLTMCFLGLILFVPTPLADNS | 5.93
MRSYIKVLTMCFLGLILFVPTQLADNS | 5.96
MRSYIKVLTMCFLGLILFVPTQTALADNS | 2.3
MRSYIKVLTMCFLGLILFVPTRLADNS | 6.28
MRSYIKVLTMCFLGLILFVPTSLADNS | 2.69
MRSYIKVLTMCFLGLILFVPTTAPSPGFALADNS | 4.85
MRSYIKVLTMCFLGLILFVPTTLADNS | 1.67
MRSYIKVLTMCFLGLILFVPTTVVALADNS | 2.15
MRSYIKVLTMCFLGLILFVPTVLADNS | 2.19
MRSYIKVLTMCFLGLILFVPTYLADNS | 7.74
MRSYIKVLTMCFLGLILFVRRKALADNS | 6.5
MRSYIKVLTMCFLGLILFVVIATVSAIPTALADNS | 2.02
MRSYIKVLTMCFLGLPTALADNS | 3.96
MRSYIKVRRRCRRRLILFVPTALADNS | 6.04
MRYFSKAVFVIMISFLIATVNVNTAHAAID | 5.65
MSFFTKNRLISSVLSTVVISSLLFPGAAGASSK | 1.61
MSFIIIPMTLALGAALTIAPLSFASAEEN | 6.39
MSFKRVITCVMAASLTLGSLLPAGYASAKED | 2.84
MSFVMNIIIALVTILMLSVTSLFALQPSAKAAEH | 2.71
MSGGGILALFVLSLGLLSFMVTPVSAASK | 2.53
MSGSRVITCVMAASLTLGSLLPAGYASAKED | 3.72
MSGSSFVLIVCIIFTSALFPTFSSVTAAQG | 1.04

Sequence | AmyQ secretion efficiency
MSGSSVMMLALTAAAGLGLTALHSAPAAKAAPL | 2.7
MSGSTLIILALFVLSLGLLSFMVTPVSAASK | 4.39
MSGTCSIVCLWILVLLLSCLSGKSAYAATS | 3.6
MSGTIFFGPIILAFILFAGAIAIPS | 6.8
MSGTTSIILFSTLALAAGMTAAAAGGAGTIHAQQP | 3.5
MSIWIVLFLVLIAAAISIFVYVSTGSEK | 6.85
MSKAAAVLLSLGLVFGFSYGAGHVAEAKTK | 2.88
MSKGIIRFLLVSFVLFFALSTGITGVQAAPA | 2.19
MSKKTWMVGLLAGCLAAGGFSYNAFATEN | 4.68
MSKLIMALVILGALGTSYISADSS | 7.07
MSKLLAAGIIGLLTVSIASPSFAAEK | 3.64
MSKLVLCVSILAVILSGVALTQLS | 6.37
MSKRLIAPMLLSAASLAFFAMSGSAQAAAY | 3.13
MSKTGRYTKAVIVIAALITFNVRNASPG | 4.05
MSKVLMAFIICLSLILSVLAAPPSGAKAESV | 2.82
MSKWLIIAVSLAIAIVLFMYTKGEAKAAGM | 7.49
MSKWMAGLFLAAAVLLCLMVPQQIQGASS | 4.5
MSKWMITIAMLILAGIALFVFISPLKSHKT | 5.71
MSLITFSLIITSAIIIAIIAAVIVIAALITFNVRNASPG | 7.04
MSLMIVFMTLPLLIVCLAFSSFSASARAASE | 4.54
